PMC2928128 (Human Molecular Genetics, 2010)

T1: harmonin-a Nter-PDZ1 fragment (residues 1-203) (UniProt Q9ES64 1-203)
T1 sequence (looked up): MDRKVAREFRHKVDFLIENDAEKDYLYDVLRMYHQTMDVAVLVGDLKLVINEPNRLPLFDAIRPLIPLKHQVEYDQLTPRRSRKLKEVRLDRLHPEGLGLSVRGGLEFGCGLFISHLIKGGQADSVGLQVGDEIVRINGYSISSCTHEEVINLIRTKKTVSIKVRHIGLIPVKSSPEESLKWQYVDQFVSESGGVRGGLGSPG

T2: harmonin-a Nter-PDZ1-PDZ2 fragment (residues 1-299) (UniProt Q9ES64 1-299)
T2 sequence (looked up): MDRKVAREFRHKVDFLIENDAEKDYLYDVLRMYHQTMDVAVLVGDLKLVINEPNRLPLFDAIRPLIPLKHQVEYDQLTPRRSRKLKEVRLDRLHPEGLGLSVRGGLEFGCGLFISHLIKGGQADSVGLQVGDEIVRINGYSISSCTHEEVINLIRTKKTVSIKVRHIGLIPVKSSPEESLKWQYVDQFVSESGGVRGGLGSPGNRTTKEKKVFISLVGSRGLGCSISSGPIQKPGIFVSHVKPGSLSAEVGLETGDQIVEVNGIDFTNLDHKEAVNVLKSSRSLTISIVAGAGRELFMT

T3: harmonin-a Nter domain (residues 1-79) (UniProt Q9ES64 1-79)
T3 sequence (looked up): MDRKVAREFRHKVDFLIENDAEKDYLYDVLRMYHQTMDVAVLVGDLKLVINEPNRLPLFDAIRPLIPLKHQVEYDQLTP

B1: full-length harmonin-a (natural protein)
chain: MDRKVAREFRHKVDFLIENDAEKDYLYDVLRMYHQTMDVAVLVGDLKLVINEPNRLPLFDAIRPLIPLKHQVEYDQLTPRRSRKLKEVRLDRLHPEGLGLSVRGGLEFGCGLFISHLIKGGQADSVGLQVGDEIVRINGYSISSCTHEEVINLIRTKKTVSIKVRHIGLIPVKSSPEESLKWQYVDQFVSESGGVRGGLGSPGNRTTKEKKVFISLVGSRGLGCSISSGPIQKPGIFVSHVKPGSLSAEVGLETGDQIVEVNGIDFTNLDHKEAVNVLKSSRSLTISIVAGAGRELFMTDRERLEEARQRELQRQELLMQKRLAMESNKILQEQQEMERQRRKEIAQKAAEENERYRKEMEQISEEEEKFKKQWEEDWGSKEQLILPKTITAEVHPVPLRKPKYDQGVEPADHLDGSTEEQRQQDFRKYEEGFDPYSMFSPEQIAGKDVRLLRIKKEGSLDLALEGGVDSPVGKVVVSAVYEGGAAERHGGVVKGDEIMAINGKIVTDYTLAEAEAALQKAWNQGGDWIDLVVAVCPPKEYDDEL
B2: GST-CDH23Δexon68 (cytoplasmic region of cadherin-23 lacking the exon68-encoded sequence, residues 847-1079) (domain or fragment)
chain: NWYYRTVHKRKLKAIVAGSAGNRGFIDIMDMPNTNKYSFDGANPVWLDPFCRNLELAAQAEHEDDLPENLSEIADLWNSPTRTHGTFGREPAAVKPDDDRYLRAAIQEYDNIAKLGQIIREGPIKLIQTELDEEPGDHSPGQGSLRFRHKPPVELKGPDGIHVVHGSTGTLLATDLNSLPEEDQKGLGRSLETLTAAEATAFERNARTESAKSTPLHKLRDVIMETPLEITEL
B3: GST-CDH23 + exon68 (cytoplasmic region of cadherin-23 including the exon68-encoded sequence, residues 847-1114) (domain or fragment)
chain: NWYYRTVHKRKLKAIVAGSAGNRGFIDIMDMPNTNKYSFDGANPVWLDPFCRNLELAAQAEHEDDLPENLSEIADLWNSPTRTHGTFGREPAAVKPDDDRYLRAAIQEYDNIAKLGQIIREGPIKGSLLKVVLEDYLRLKKLFAQRMVQKASSCHSSISELIQTELDEEPGDHSPGQGSLRFRHKPPVELKGPDGIHVVHGSTGTLLATDLNSLPEEDQKGLGRSLETLTAAEATAFERNARTESAKSTPLHKLRDVIMETPLEITEL
B4: GST-CDH23 + exon68ΔITEL (residues 847-1110) (domain or fragment)
chain: NWYYRTVHKRKLKAIVAGSAGNRGFIDIMDMPNTNKYSFDGANPVWLDPFCRNLELAAQAEHEDDLPENLSEIADLWNSPTRTHGTFGREPAAVKPDDDRYLRAAIQEYDNIAKLGQIIREGPIKGSLLKVVLEDYLRLKKLFAQRMVQKASSCHSSISELIQTELDEEPGDHSPGQGSLRFRHKPPVELKGPDGIHVVHGSTGTLLATDLNSLPEEDQKGLGRSLETLTAAEATAFERNARTESAKSTPLHKLRDVIMETPLE

Key:
Assay in all cases: SPR
[1] = target: B4
[2] = target: GST-CDH23Δexon68ΔITEL (residues 847-1075)
[3] = target: B3
[4] = target: B2
[5] = target: T1, harmonin-a Nter-PDZ1 fragment (residues …)
[6] = target: T2, harmonin-a Nter-PDZ1-PDZ2 fragment …
[7] = target: T3, harmonin-a Nter domain (residues 1-79)

Kd [1] | Kd [2] | Kd [3] | Kd [4] | Kd [5] | Kd [6] | Kd [7] | Binder
127 ± 12 nM | 48 ± 6 nM | 97 ± 14 nM | 79 ± 11 nM |  |  |  | B1
 |  |  |  | 79 ± 10 nM | 42 ± 11 nM | > 5000 nM | B2
 |  |  |  | 94 ± 8 nM | 64 ± 6 nM | > 5000 nM | B3
 |  |  |  | 106 ± 5 nM | 66 ± 13 nM | > 5000 nM | B4
